This is an account of results in publication PMC6082870.

Data set [1] is described as follows: analytical size exclusion chromatography. The following applies: glycan gained; control: wild type.
Data set [2] can be described thus: lysyl hydroxylase activity, Succinate-Glo luminescence. The following applies: glycan gained; control: wild type.

B1: lysyl hydroxylase 3 (LH3/PLOD3): T672N (protein)
parent chain: MTSSGPGPRFLLLLPLLLPPAASASDRPRGRDPVNPEKLLVITVATAETEGYLRFLRSAEFFNYTVRTLGLGEEWRGGDVARTVGGGQKVRWLKKEMEKYADREDMIIMFVDSYDVILAGSPTELLKKFVQSGSRLLFSAESFCWPEWGLAEQYPEVGTGKRFLNSGGFIGFATTIHQIVRQWKYKDDDDDQLFYTRLYLDPGLREKLSLNLDHKSRIFQNLNGALDEVVLKFDRNRVRIRNVAYDTLPIVVHGNGPTKLQLNYLGNYVPNGWTPEGGCGFCNQDRRTLPGGQPPPRVFLAVFVEQPTPFLPRFLQRLLLLDYPPDRVTLFLHNNEVFHEPHIADSWPQLQDHFSAVKLVGPEEALSPGEARDMAMDLCRQDPECEFYFSLDADAVLTNLQTLRILIEENRKVIAPMLSRHGKLWSNFWGALSPDEYYARSEDYVELVQRKRVGVWNVPYISQAYVIRGDTLRMELPQRDVFSGSDTDPDMAFCKSFRDKGIFLHLSNQHEFGRLLATSRYDTEHLHPDLWQIFDNPVDWKEQYIHENYSRALEGEGIVEQPCPDVYWFPLLSEQMCDELVAEMEHYGQWSGGRHEDSRLAGGYENVPTVDIHMKQVGYEDQWLQLLRTYVGPMTESLFPGYHTKARAVMNFVVRYRPDEQPSLRPHHDSSTFTLNVALNHKGLDYEGGGCRFLRYDCVISSPRKGWALLHPGRLTHYHEGLPTTWGTRYIMVSFVDP
On to B1, for which, in data set [1], the oligomerisation entry is on record as “decreases”.

B2: lysyl hydroxylase 3 (LH3/PLOD3): W148N-L150T (protein)
parent chain: MTSSGPGPRFLLLLPLLLPPAASASDRPRGRDPVNPEKLLVITVATAETEGYLRFLRSAEFFNYTVRTLGLGEEWRGGDVARTVGGGQKVRWLKKEMEKYADREDMIIMFVDSYDVILAGSPTELLKKFVQSGSRLLFSAESFCWPEWGLAEQYPEVGTGKRFLNSGGFIGFATTIHQIVRQWKYKDDDDDQLFYTRLYLDPGLREKLSLNLDHKSRIFQNLNGALDEVVLKFDRNRVRIRNVAYDTLPIVVHGNGPTKLQLNYLGNYVPNGWTPEGGCGFCNQDRRTLPGGQPPPRVFLAVFVEQPTPFLPRFLQRLLLLDYPPDRVTLFLHNNEVFHEPHIADSWPQLQDHFSAVKLVGPEEALSPGEARDMAMDLCRQDPECEFYFSLDADAVLTNLQTLRILIEENRKVIAPMLSRHGKLWSNFWGALSPDEYYARSEDYVELVQRKRVGVWNVPYISQAYVIRGDTLRMELPQRDVFSGSDTDPDMAFCKSFRDKGIFLHLSNQHEFGRLLATSRYDTEHLHPDLWQIFDNPVDWKEQYIHENYSRALEGEGIVEQPCPDVYWFPLLSEQMCDELVAEMEHYGQWSGGRHEDSRLAGGYENVPTVDIHMKQVGYEDQWLQLLRTYVGPMTESLFPGYHTKARAVMNFVVRYRPDEQPSLRPHHDSSTFTLNVALNHKGLDYEGGGCRFLRYDCVISSPRKGWALLHPGRLTHYHEGLPTTWGTRYIMVSFVDP
With B2, the oligomerisation entry in data set [1] was “no change”. For the same protein, the enzymatic_activity entry in data set [2] is “no change”.

B3: lysyl hydroxylase 3 (LH3/PLOD3): R714N (protein)
parent chain: MTSSGPGPRFLLLLPLLLPPAASASDRPRGRDPVNPEKLLVITVATAETEGYLRFLRSAEFFNYTVRTLGLGEEWRGGDVARTVGGGQKVRWLKKEMEKYADREDMIIMFVDSYDVILAGSPTELLKKFVQSGSRLLFSAESFCWPEWGLAEQYPEVGTGKRFLNSGGFIGFATTIHQIVRQWKYKDDDDDQLFYTRLYLDPGLREKLSLNLDHKSRIFQNLNGALDEVVLKFDRNRVRIRNVAYDTLPIVVHGNGPTKLQLNYLGNYVPNGWTPEGGCGFCNQDRRTLPGGQPPPRVFLAVFVEQPTPFLPRFLQRLLLLDYPPDRVTLFLHNNEVFHEPHIADSWPQLQDHFSAVKLVGPEEALSPGEARDMAMDLCRQDPECEFYFSLDADAVLTNLQTLRILIEENRKVIAPMLSRHGKLWSNFWGALSPDEYYARSEDYVELVQRKRVGVWNVPYISQAYVIRGDTLRMELPQRDVFSGSDTDPDMAFCKSFRDKGIFLHLSNQHEFGRLLATSRYDTEHLHPDLWQIFDNPVDWKEQYIHENYSRALEGEGIVEQPCPDVYWFPLLSEQMCDELVAEMEHYGQWSGGRHEDSRLAGGYENVPTVDIHMKQVGYEDQWLQLLRTYVGPMTESLFPGYHTKARAVMNFVVRYRPDEQPSLRPHHDSSTFTLNVALNHKGLDYEGGGCRFLRYDCVISSPRKGWALLHPGRLTHYHEGLPTTWGTRYIMVSFVDP
On to B3, for which the oligomerisation entry in data set [1] was “decreases”.
